Assay results from paper PMC3508667 (Biochemistry, 2012).
Where a chain is given by its changes, count along the chain named.

B1: (Phe94)-scFv (scFv, V domains shown)
VH: DIQLQESGPSLVKPSQTLSLTCSVTGDSITSDYWSWIRKFPGNRLEYMGYVSYSGSTYYNPSLKSRISITRDTSKNQYYLDLNSVTTEDTATYYCANWDGDYWGQGTLVTVSA
VL: DIVLTQSPATLSVTPGNSVSLSCRASQSIGNNLHWYQQKSHESPRLLIKYASQSISGIPSRFSGSGSGTDFTLSINSVETEDFGMYFCQQSNSFPYTFGGGTKLEIT
B2: ^5FW(Phe94)-scFv (scFv, V domains shown)
VH: B1 VH
VL: B1 VL
B3: ^5FW(Phe36)-scFv (scFv, V domains shown)
VH: B1 VH with W36F
VL: B1 VL with F94W
B4: (Phe34)-scFv (scFv, V domains shown)
VH: B1 VH with W34F
VL: B1 VL with F94W
B5: ^5FW(Phe34)-scFv (scFv, V domains shown)
VH: B1 VH with W34F
VL: B1 VL with F94W
B6: (Phe36)-scFv (scFv, V domains shown)
VH: B1 VH with W36F
VL: B1 VL with F94W

These molecules were tested against hen egg white lysozyme (Gallus gallus (hen egg white), UniProt P00698) (assay: SPR).
Chain of hen egg white lysozyme (P00698 19-147): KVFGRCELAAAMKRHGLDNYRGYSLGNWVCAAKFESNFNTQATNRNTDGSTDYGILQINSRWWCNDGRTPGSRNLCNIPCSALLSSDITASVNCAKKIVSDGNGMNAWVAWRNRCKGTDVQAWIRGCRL

Kd [nM] | Molecule
0.272 | B1
1.99 | B2
4.22 | B3
0.266 | B4
1.22 | B5
0.559 | B6

The molecules below were run against hen egg white lysozyme (hen) (UniProt P00698) (assay: SPR).
Chain of hen egg white lysozyme (hen) (P00698 19-147): as above

Kd [nM] | Molecule
4.03 | ^5FW-scFv (HyHEL10 scFv, all Trp residues substituted with 5-fluorotryptophan)
